Data taken from the Immune Epitope Database (IEDB).
One block for each sequence: values may come before it.

Key:
[1] = biological target: HLA-A*02:01; experiment: IEDB peptide-MHC binding, cellular MHC/competitive/fluorescence; ≥ and ≤ were set here for values at or beyond the usual limits of such assays; conditions: source organism: Homo sapiens
[2] = biological target: HLA-B*15:17; experiment: IEDB peptide-MHC binding, purified MHC/competitive/fluorescence; filed as Kd, often an IC50 or EC50 that approximates it; ≥ and ≤ were set here for values at or beyond the usual limits of such assays
[3] = biological target: HLA-A*02:06; experiment: as above; conditions: source organism: Mycolicibacterium gilvum PYR-GCK
[4] = biological target: HLA-A*26:03; experiment: as above; conditions: source organism: Mycolicibacterium gilvum PYR-GCK
[5] = biological target: HLA-B*35:01; experiment: as above; conditions: source organism: Mycolicibacterium gilvum PYR-GCK
[6] = biological target: HLA-A*11:01; experiment: IEDB peptide-MHC binding, purified MHC/direct/fluorescence; filed as Kd, often an IC50 or EC50 that approximates it; ≥ and ≤ were set here for values at or beyond the usual limits of such assays; conditions: source organism: Mycobacterium tuberculosis
[7] = biological target: HLA-A*68:02; experiment: as above; conditions: source organism: Mycobacterium tuberculosis
[8] = biological target: HLA-B*18:01; experiment: as above; conditions: source organism: Mycobacterium tuberculosis
[9] = biological target: HLA-B*15:01; experiment: as above
[10] = biological target: HLA-B*07:02; experiment: as above; conditions: source organism: Mycobacterium tuberculosis
[11] = biological target: HLA-B*27:05; experiment: as above; conditions: source organism: Mycobacterium tuberculosis
[12] = biological target: HLA-B*48:01; experiment: as above; conditions: source organism: Mycobacterium tuberculosis
[13] = biological target: HLA-B*58:01; experiment: as above
[14] = biological target: HLA-A*01:01; experiment: as above; conditions: source organism: Mycobacterium tuberculosis
[15] = biological target: HLA-B*57:01; experiment: as above; conditions: source organism: Mycobacterium tuberculosis
[16] = biological target: HLA-A*26:01; experiment: as above; conditions: source organism: Mycobacterium tuberculosis str. Haarlem
[17] = biological target: HLA-A*02:01; experiment: as above; conditions: source organism: Mycobacterium tuberculosis
[18] = biological target: HLA-B*40:01; experiment: as above; conditions: source organism: Mycobacterium tuberculosis
[19] = biological target: HLA-A*31:01; experiment: as above; conditions: source organism: Mycobacterium tuberculosis
[20] = biological target: HLA-B*46:01; experiment: as above; conditions: source organism: Mycobacterium tuberculosis
[21] = biological target: HLA-A*69:01; experiment: as above; conditions: source organism: Mycobacterium tuberculosis
[22] = biological target: HLA-A*11:01; experiment: IEDB peptide-MHC binding, purified MHC/competitive/fluorescence; filed as Kd, often an IC50 or EC50 that approximates it; ≥ and ≤ were set here for values at or beyond the usual limits of such assays; conditions: source organism: human gammaherpesvirus 4
[23] = biological target: HLA-B*53:01; experiment: IEDB peptide-MHC binding, purified MHC/competitive/fluorescence; ≥ and ≤ were set here for values at or beyond the usual limits of such assays; conditions: source organism: Human herpesvirus 4 type 2
[24] = biological target: HLA-A*24:02; experiment: IEDB peptide-MHC binding, purified MHC/competitive/radioactivity; ≥ and ≤ were set here for values at or beyond the usual limits of such assays; conditions: source organism: Homo sapiens
[25] = biological target: HLA-B*40:01; experiment: IEDB peptide-MHC binding, purified MHC/competitive/fluorescence; filed as Kd, often an IC50 or EC50 that approximates it; ≥ and ≤ were set here for values at or beyond the usual limits of such assays
[26] = biological target: HLA-A*68:02; experiment: as above; conditions: source organism: Burkholderia pseudomallei 668
[27] = biological target: HLA-B*18:01; experiment: as above; conditions: source organism: Burkholderia pseudomallei 668
[28] = biological target: HLA-A*23:01; experiment: as above; conditions: source organism: Burkholderia pseudomallei 668
[29] = biological target: HLA-B*45:06; experiment: as above; conditions: source organism: Burkholderia pseudomallei 668
[30] = biological target: HLA-B*39:01; experiment: as above; conditions: source organism: Burkholderia pseudomallei 668
[31] = biological target: HLA-B*83:01; experiment: as above; conditions: source organism: Burkholderia pseudomallei 668
[32] = biological target: HLA-B*15:42; experiment: as above; conditions: source organism: Burkholderia pseudomallei 668
[33] = biological target: HLA-A*03:01; experiment: as above; conditions: source organism: Burkholderia pseudomallei 668
[34] = biological target: HLA-B*27:03; experiment: as above; conditions: source organism: Burkholderia pseudomallei 668
[35] = biological target: HLA-B*57:01; experiment: as above
[36] = biological target: HLA-A*29:02; experiment: as above; conditions: source organism: Burkholderia pseudomallei 668
[37] = biological target: HLA-A*24:03; experiment: as above; conditions: source organism: Burkholderia pseudomallei 668
[38] = biological target: HLA-A*26:01; experiment: as above; conditions: source organism: Burkholderia pseudomallei 668
[39] = biological target: HLA-A*02:01; experiment: as above; conditions: source organism: Burkholderia pseudomallei 668
[40] = biological target: HLA-B*51:01; experiment: as above; conditions: source organism: Burkholderia pseudomallei 668
[41] = biological target: HLA-B*46:01; experiment: as above; conditions: source organism: Burkholderia pseudomallei 668
[42] = biological target: HLA-A*02:11; experiment: as above; conditions: source organism: Burkholderia pseudomallei 668
[43] = biological target: HLA-A*69:01; experiment: as above; conditions: source organism: Burkholderia pseudomallei 668
[44] = biological target: HLA-A*01:01; experiment: IEDB peptide-MHC binding, purified MHC/competitive/radioactivity; ≥ and ≤ were set here for values at or beyond the usual limits of such assays
[45] = biological target: HLA-A*02:01; experiment: as above; conditions: source organism: Homo sapiens
[46] = biological target: HLA-B*44:02; experiment: IEDB peptide-MHC binding, purified MHC/competitive/fluorescence; filed as Kd, often an IC50 or EC50 that approximates it; ≥ and ≤ were set here for values at or beyond the usual limits of such assays; conditions: source organism: Escherichia coli O139:H28 str. E24377A
[47] = source organism: Mycobacterium tuberculosis
[48] = source organism: Burkholderia pseudomallei 668
[49] = source organism: Escherichia coli O139:H28 str. E24377A
[50] = source organism: Escherichia coli

Sequence: ALLDKLYAL
IC50 [1]: 1.18 µM

Sequence: ALYLLDGLR
Kd ([2]; source organism: Mycolicibacterium gilvum PYR-GCK): 0.446 µM
Kd [3]: ≥ 20 µM
Kd [4]: 1 µM
Kd [5]: 1.21 µM
Kd [6]: 7.37 µM
Kd [7]: ≥ 20 µM
Kd [8]: ≥ 20 µM
Kd [9, 47]: ≥ 20 µM
Kd [10]: ≥ 20 µM
Kd [11]: ≥ 20 µM
Kd [12]: ≥ 20 µM
Kd [13, 47]: ≥ 20 µM
Kd [14]: ≥ 20 µM
Kd [15]: ≥ 20 µM
Kd [16]: ≥ 20 µM
Kd [17]: ≥ 20 µM
Kd [18]: ≥ 20 µM
Kd [19]: 0.106 µM
Kd [20]: ≥ 20 µM
Kd [21]: ≥ 20 µM

Sequence: FSSQLGLFY
Kd [22]: 0.947 µM
IC50 [23]: 2.97 µM

Sequence: IEDKNLYMF
Kd ([25]; source organism: Bacillus mycoides KBAB4): 0.0127 µM

Sequence: ILFDRLPIA
Kd [26]: ≥ 20 µM
Kd [27]: ≥ 20 µM
Kd [28]: ≥ 20 µM
Kd [29]: ≥ 5 µM
Kd [30]: ≥ 20 µM
Kd [31]: ≥ 5 µM
Kd [32]: 0.97 µM
Kd [2, 48]: ≥ 20 µM
Kd [33]: ≥ 20 µM
Kd [34]: ≥ 20 µM
Kd [35, 48]: ≥ 20 µM
Kd [36]: ≥ 20 µM
Kd [37]: ≥ 20 µM
Kd [38]: ≥ 20 µM
Kd [39]: ≤ 0.0001 µM
Kd [40]: ≥ 20 µM
Kd [41]: ≥ 20 µM
Kd [42]: ≤ 0.0001 µM
Kd [43]: ≥ 20 µM

Sequence: KSAIVTLTY
IC50 ([44]; source organism: Human papillomavirus 16): 0.011 µM

Sequence: LLDRFLATV
IC50 [1]: 0.56 µM

Sequence: YGDDVIFSY
IC50 ([44]; source organism: Rhinovirus A): 0.2 µM

Second part, the sequence after the results:

IC50 [24]: 0.153 µM
Sequence: FYDPMFKYHL

IC50 [24]: 0.522 µM
Sequence: IFSKASEYL

IC50 [45]: 0.333 µM
Sequence: LLAVGATKV

IC50 [45]: 0.25 µM
Sequence: RLDCWRGGQV

Kd ([25]; source organism: Escherichia coli O157:H7 str. EDL933): 0.096 µM
Sequence: WEKAWPAVF

Kd [46]: ≥ 20 µM
Kd [2, 49]: 0.0052 µM
Kd [35, 49]: 0.108 µM
Kd [9, 50]: 0.0934 µM
Kd [13, 50]: 0.0521 µM
Sequence: WSILRQRCW
